Assay results reported in article PMC9110858.
Values belong to the substance of their own block, whether it stands above or below them.

Columns and labels:
[1] = target: IL-2 (Homo sapiens) (UniProt P60568); conditions: cited from earlier work
[2] = target: IL-15 (Homo sapiens) (UniProt P40933); conditions: cited from earlier work
[3] = target: trimeric IL-15Rα/IL-2Rβ/γc receptor on Kit225 cells (human (endogenous in Kit225)) (UniProt Q13261)

UniProt P60568, sequence (P60568 21-153): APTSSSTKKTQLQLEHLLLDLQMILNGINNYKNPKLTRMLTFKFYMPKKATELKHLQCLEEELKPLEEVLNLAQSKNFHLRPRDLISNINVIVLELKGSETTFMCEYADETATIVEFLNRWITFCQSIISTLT
UniProt P40933, sequence (P40933 49-162): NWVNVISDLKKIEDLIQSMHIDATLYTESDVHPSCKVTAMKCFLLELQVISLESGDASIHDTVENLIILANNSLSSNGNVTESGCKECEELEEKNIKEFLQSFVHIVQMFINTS

Substance: IL-2Rα (from UniProt P01589)
Kd [1]: 10 nM

Substance: IL-15Rα (from UniProt Q13261)
Kd [2]: 0.05 nM

IC50 of inhibition of IL-15- or IL-15D8S-induced Kit225 cell proliferation by increasing NANTIL-15 [3]: < 1 nM
IC50 of inhibition of IL-15-induced Stat5 phosphorylation in Kit225 cells by increasing NANTIL-15 (blocks IL-15 acting through the trimeric IL-15Rα/IL-2Rβ/γc receptor) [3]: 1 nM
IC50 of inhibition of IL-15D8S-induced pStat5 signal in Kit225 cells by increasing NANTIL-15 (IL-15D8S signals only through the trimeric receptor) [3]: 1 nM
plateau of inhibition of IL-15-induced Stat5 phosphorylation in Kit225 cells by increasing NANTIL-15 [3]: 60%
Substance: NANTIL-15 (New ANTagonist of IL-15), human IL-15 L45D-N65K-L69R linked to a human Fc (IgG1) (Fc fusion)
